In IntAct's records for PubMed 16304051:

B1: Multiple coagulation factor deficiency protein 2 (Homo sapiens), Q8NI22 (parent)
chain: MTMRSLLRTPFLCGLLWAFCAPGARAEEPAASFSQPGSMGLDKNTVHDQEHIMEHLEGVINKPEAEMSPQELQLHYFKMHDYDGNNLLDGLELSTAITHVHKEEGSEQAPLMSEDELINIIDGVLRDDDKNNDGYIDYAEFAKSLQ
partner: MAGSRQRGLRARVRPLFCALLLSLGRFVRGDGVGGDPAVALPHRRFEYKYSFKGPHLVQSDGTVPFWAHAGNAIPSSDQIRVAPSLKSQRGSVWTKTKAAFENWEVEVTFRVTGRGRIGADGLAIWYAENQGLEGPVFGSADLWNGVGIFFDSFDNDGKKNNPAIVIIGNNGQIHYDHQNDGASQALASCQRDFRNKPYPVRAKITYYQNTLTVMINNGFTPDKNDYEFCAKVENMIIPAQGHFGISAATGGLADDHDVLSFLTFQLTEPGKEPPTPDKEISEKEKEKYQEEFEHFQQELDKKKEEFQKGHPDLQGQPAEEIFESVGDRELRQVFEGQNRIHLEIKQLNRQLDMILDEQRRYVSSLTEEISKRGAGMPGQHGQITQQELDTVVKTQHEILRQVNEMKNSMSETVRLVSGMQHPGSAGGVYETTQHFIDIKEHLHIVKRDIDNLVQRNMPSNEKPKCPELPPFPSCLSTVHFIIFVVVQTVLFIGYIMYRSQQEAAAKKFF

Variants of: B1
Details: with lman1_human LMAN1, P49257

Row | Variant | effect of a mutation on the interaction
1 | I136T | with no effect
